Reference: paper PMC3795039

Key:
GST-NUP153C (human) = GST-NUP153C (human) (UniProt P49790); test: pull-down; 0.47 µM GST-NUP153C pre-bound to glutathione-sepharose beads, 0.8 µM his-tagged IN, PD buffer (150 mM NaCl, 25 mM Tris-HCl pH 7.4, 5 mM MgCl2, 5 mM DTT, 0.1% NP-40), BSA 5 µg, 2 h 4°C; Coomassie and anti-his blot
[1] = molecular target: HIV-1 CA-NC fusion protein assembled into tube-like complexes (HIV-1); test: co-sedimentation; purified tag-free NUP153C or GST incubated with assembled HIV-1 CA-NC complexes, pelleted through a sucrose cushion; Coomassie stain
[2] = molecular target: full length his-tagged wild-type HIV-1 CA (HIV-1 (NL4-3)); test: pull-down; Ni-NTA beads, 20 µM his-tagged CA or CAN, 0.5 µM purified NUP153C, 25 mM Tris-HCl pH 8.0, 150 mM NaCl, 0.1% NP-40, 1 h room temperature; Coomassie or SYPRO Ruby stain
[3] = molecular target: his-tagged HIV-1 CAN Q63A/Q67A (HIV-1 (NL4-3)); test: as above
[4] = molecular target: HIV-1 CA-NC fusion protein assembled into tube-like complexes (HIV-1); test: co-sedimentation; competition: 4 µM purified WT or mutant NUP153C added to 0.8 µM assembled CA-NC and CPSF6-HA 293T extract; read-out is CPSF6 in the pellet
[5] = molecular target: T1, his-tagged HIV-1 CA N-terminal domain (CAN) (HIV-1 (NL4-3)), P12493; test: pull-down; saturation curves: 3 µl Ni-NTA beads, 0.5 µM purified WT or mutant NUP153C, HIV-1 CAN from 2 µM to 200 µM in half-log steps, 150 mM NaCl, 25 mM Tris-HCl pH 8.0, 0.1% NP-40; percent bound by SYPRO Ruby; one-site saturation fit, Kd at half-maximal binding; conditions: remark: other sources report otherwise
[6] = molecular target: T1, his-tagged HIV-1 CA N-terminal domain …; test: pull-down; Ni-NTA beads, 20 µM his-tagged CA or CAN, 0.5 µM purified NUP153C, 25 mM Tris-HCl pH 8.0, 150 mM NaCl, 0.1% NP-40, 1 h room temperature; Coomassie or SYPRO Ruby stain; conditions: remark: other sources report otherwise

his-tagged FIV integrase (IN) (enzyme)
percent of input pulled down (GST-NUP153C (human)): 5.55%

his-tagged HIV-1 integrase (IN) (enzyme)
percent of input pulled down (GST-NUP153C (human)): 0.85%

recombinant tag-free NUP153C (residues 896–1475) (from UniProt P49790-1 896-1475) (domain or fragment)
percent of input recovered in the pellet [1]: 40%
percent of input pulled down [2]: 30%
fold decrease of binding against WT CAN [3]: 1.3 fold
fold decrease of CPSF6 binding to CA-NC with 4 µM NUP153C [4]: 7 fold

B1: recombinant tag-free NUP153C (residues 896–1475), P49790-1 896-1475 (domain or fragment)
chain: NSAASSSFKFGVSSSSSGPSQTLTSTGNFKFGDQGGFKIGVSSDSGSINPMSEGFKFSKPIGDFKFGVSSESKPEEVKKDSKNDNFKFGLSSGLSNPVSLTPFQFGVSNLGQEEKKEELPKSSSAGFSFGTGVINSTPAPANTIVTSENKSSFNLGTIETKSASVAPFTCKTSEAKKEEMPATKGGFSFGNVEPASLPSASVFVLGRTEEKQQEPVTSTSLVFGKKADNEEPKCQPVFSFGNSEQTKDENSSKSTFSFSMTKPSEKESEQPAKATFAFGAQTSTTADQGAAKPVFSFLNNSSSSSSTPATSAGGGIFGSSTSSSNPPVATFVFGQSSNPVSSSAFGNTAESSTSQSLLFSQDSKLATTSSTGTAVTPFVFGPGASSNNTTTSGFGFGATTTSSSAGSSFVFGTGPSAPSASPAFGANQTPTFGQSQGASQPNPPGFGSISSSTALFPTGSQPAPPTFGTVSSSSQPPVFGQQPSQSAFGSGTTPNSSSAFQFGSSTTNFNFTNNSPSGVFTFGANSSTPAASAQPSGSGGFPFNQSPAAFTVGSNGKNVFSSSGTSFSGRKIKTAVRRRK
Kd [5]: 28.3 µM
percent of input pulled down [6]: 30%
